Assay results from publication PMC2935576 (The Journal of Cell Biology, 2010).

Columns and labels:
Spc105p 800-829 = Spc105p 800-829 (UniProt P53148); experiment: ITC, Spc105p peptide 1 with MIND complex; conditions: reference: untreated MIND complex; sites S250
[1] = target: recombinant S. cerevisiae NDC80 complex (Ndc80p, Nuf2p, Spc24p, Spc25p), His-tagged on Ndc80p (S. cerevisiae, UniProt P40460;P33895;Q04477;P40014); experiment: ITC
[2] = target: T1, Dsn1p residues 103–412 (trypsin-resistant fragment) (S. cerevisiae, UniProt P40568 103-412); experiment: limited proteolysis
T1 sequence: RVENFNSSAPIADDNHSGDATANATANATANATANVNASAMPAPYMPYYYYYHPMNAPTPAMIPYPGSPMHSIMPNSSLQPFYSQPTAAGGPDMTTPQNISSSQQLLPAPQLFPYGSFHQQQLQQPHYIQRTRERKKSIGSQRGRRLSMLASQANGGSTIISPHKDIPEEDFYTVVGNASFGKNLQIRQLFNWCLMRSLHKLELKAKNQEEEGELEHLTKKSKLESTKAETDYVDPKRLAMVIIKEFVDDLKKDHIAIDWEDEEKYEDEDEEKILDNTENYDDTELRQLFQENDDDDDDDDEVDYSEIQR

[3] = target: T2, Mtw1p residues 1–220 (trypsin-resistant fragment) (S. cerevisiae, UniProt P39731 1-220); experiment: limited proteolysis
T2 sequence: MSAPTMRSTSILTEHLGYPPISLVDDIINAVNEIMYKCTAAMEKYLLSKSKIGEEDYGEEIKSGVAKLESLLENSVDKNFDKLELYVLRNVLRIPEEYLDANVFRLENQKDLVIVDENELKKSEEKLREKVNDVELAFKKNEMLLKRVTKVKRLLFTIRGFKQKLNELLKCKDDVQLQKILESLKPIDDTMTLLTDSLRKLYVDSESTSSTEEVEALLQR

Dsn1p–Nsl1p heterodimer = target: T3, Dsn1p–Nsl1p heterodimer (S. cerevisiae, UniProt P40568;Q12143); experiment: AUC
T3 sequence 1: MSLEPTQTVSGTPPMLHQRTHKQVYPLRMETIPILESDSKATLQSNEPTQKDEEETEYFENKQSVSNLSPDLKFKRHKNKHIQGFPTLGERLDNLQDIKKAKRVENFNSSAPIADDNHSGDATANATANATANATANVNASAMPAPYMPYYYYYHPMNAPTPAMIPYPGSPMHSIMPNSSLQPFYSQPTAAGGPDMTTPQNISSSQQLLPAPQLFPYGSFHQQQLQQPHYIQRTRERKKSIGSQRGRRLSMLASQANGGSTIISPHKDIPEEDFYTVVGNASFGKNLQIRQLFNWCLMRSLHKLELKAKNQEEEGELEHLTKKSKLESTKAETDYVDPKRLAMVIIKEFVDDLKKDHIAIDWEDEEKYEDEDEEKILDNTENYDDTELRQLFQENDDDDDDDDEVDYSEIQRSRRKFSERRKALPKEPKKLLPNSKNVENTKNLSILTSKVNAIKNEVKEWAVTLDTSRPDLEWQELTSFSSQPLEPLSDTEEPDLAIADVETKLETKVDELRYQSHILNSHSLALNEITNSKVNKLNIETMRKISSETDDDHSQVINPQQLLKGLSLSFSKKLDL
T3 sequence 2: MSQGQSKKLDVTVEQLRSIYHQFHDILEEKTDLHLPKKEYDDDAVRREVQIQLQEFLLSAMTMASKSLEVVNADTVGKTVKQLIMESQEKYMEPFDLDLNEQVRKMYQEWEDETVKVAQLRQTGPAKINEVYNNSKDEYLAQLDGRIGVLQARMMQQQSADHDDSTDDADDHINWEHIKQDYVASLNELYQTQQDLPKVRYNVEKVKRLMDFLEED

Chain of recombinant S. cerevisiae NDC80 complex (Ndc80p, Nuf2p, Spc24p, Spc25p), His-tagged on Ndc80p (P40460 whole entry, chain 1 of 4, the tested form may be a part): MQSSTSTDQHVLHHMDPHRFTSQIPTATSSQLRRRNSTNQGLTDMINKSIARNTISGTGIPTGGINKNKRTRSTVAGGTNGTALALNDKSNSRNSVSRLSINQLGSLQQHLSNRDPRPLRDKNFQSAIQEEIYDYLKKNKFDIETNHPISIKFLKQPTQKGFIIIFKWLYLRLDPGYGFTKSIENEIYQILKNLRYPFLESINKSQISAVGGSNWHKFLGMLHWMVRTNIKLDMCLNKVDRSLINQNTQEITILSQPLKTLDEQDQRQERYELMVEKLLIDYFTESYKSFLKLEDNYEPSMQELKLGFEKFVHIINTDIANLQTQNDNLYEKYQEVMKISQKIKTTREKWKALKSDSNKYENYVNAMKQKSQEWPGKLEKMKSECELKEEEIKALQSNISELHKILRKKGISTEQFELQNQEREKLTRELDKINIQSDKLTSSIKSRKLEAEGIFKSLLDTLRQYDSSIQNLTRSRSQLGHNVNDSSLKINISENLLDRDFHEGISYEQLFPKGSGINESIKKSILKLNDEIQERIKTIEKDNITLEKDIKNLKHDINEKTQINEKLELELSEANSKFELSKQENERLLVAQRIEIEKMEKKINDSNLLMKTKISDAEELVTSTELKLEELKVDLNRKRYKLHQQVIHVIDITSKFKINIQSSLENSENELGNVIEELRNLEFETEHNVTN
Chain of recombinant S. cerevisiae NDC80 complex (Ndc80p, Nuf2p, Spc24p, Spc25p), His-tagged on Ndc80p (P33895 whole entry, chain 2 of 4, the tested form may be a part): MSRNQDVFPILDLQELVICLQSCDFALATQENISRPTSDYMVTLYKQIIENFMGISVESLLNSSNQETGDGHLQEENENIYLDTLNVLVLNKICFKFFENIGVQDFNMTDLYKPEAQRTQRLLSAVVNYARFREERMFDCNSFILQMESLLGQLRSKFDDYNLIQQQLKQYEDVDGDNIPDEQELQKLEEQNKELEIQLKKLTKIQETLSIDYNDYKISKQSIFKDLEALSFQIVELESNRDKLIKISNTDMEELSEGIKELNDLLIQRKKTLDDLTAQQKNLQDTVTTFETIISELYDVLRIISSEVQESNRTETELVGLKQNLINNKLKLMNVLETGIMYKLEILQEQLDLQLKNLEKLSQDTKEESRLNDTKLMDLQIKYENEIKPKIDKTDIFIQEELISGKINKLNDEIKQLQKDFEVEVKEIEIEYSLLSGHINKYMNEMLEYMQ
Chain of recombinant S. cerevisiae NDC80 complex (Ndc80p, Nuf2p, Spc24p, Spc25p), His-tagged on Ndc80p (Q04477 whole entry, chain 3 of 4, the tested form may be a part): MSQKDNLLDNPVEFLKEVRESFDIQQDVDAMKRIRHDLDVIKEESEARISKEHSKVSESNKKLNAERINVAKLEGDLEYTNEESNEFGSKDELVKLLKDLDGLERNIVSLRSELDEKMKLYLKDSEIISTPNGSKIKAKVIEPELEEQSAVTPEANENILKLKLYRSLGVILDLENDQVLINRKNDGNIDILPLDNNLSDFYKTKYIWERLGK
Chain of recombinant S. cerevisiae NDC80 complex (Ndc80p, Nuf2p, Spc24p, Spc25p), His-tagged on Ndc80p (P40014 whole entry, chain 4 of 4, the tested form may be a part): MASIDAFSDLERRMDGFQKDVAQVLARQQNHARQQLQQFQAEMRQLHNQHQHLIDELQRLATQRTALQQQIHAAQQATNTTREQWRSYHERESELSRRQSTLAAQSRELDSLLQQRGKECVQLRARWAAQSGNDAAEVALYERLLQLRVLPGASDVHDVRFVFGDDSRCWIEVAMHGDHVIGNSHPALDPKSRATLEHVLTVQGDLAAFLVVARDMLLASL

## Dsn1p (from UniProt P40568) Ipl1p-phosphorylated MIND complex (Dsn1p pS250)
Spc105p 800-829
  binding against the reference: same

B1: MIND complex phosphorylated on Dsn1p Ser250 by Ipl1p (complex)
chain 1: T3 sequence 1
chain 2: MSAPTMRSTSILTEHLGYPPISLVDDIINAVNEIMYKCTAAMEKYLLSKSKIGEEDYGEEIKSGVAKLESLLENSVDKNFDKLELYVLRNVLRIPEEYLDANVFRLENQKDLVIVDENELKKSEEKLREKVNDVELAFKKNEMLLKRVTKVKRLLFTIRGFKQKLNELLKCKDDVQLQKILESLKPIDDTMTLLTDSLRKLYVDSESTSSTEEVEALLQRLKTNGKQNNKDFRTRYIDIRTNNVLRKLGLLGDKEDEKQSAKPDARTQAGDIVSIDIEEPQLDLLDDVL
chain 3: MVNSHGIRYIRLKQVFNRALDQSISKLQSWDKVSSCFPQYVNSKQGAINVANCQRQLTEFWTELCQREFKEIMEERNVEQKLNELDELILEAKERYTDRDQDEVNKGPAIDELSSKELVECHLYSQRMHAIHEIDERLAKVNEMNDQLAQELKDLETQVEVEKNEIGKMYDEYLGSHTDQPANVLLVQSLNDMVLELKENY
chain 4: T3 sequence 2
modifications: phosphoserine at 250
[1]
  binding result: binds

B2: Nsl1p (natural protein)
chain: T3 sequence 2
[2]
  binding result: binds

B3: Nnf1p (natural protein)
chain: B1 chain 3
[3]
  binding result: binds

B4: Mtw1p–Nnf1p heterodimer (complex)
chain 1: B1 chain 2
chain 2: B1 chain 3
Dsn1p–Nsl1p heterodimer
  stoichiometry N: 1
